Measurements taken from the supplement of paper PMC11246515.
± gives the standard deviation of the averaged measurements.

Assay: total protein half-life in vivo (active degradation + dilution); higher = more stable protein
[1] = E. coli NCM3722 delta-clpP delta-lon delta-hslV, growth: N-lim chemostat, doubling time 6 h
[2] = wild type E. coli NCM3722, growth: C-lim chemostat, doubling time 3 h
[3] = wild type E. coli NCM3722, growth: C-lim chemostat, doubling time 6 h
[4] = wild type E. coli NCM3722, growth: C-lim chemostat, doubling time 12 h
[5] = wild type E. coli NCM3722, growth: P-lim chemostat, doubling time 6 h
[6] = wild type E. coli NCM3722, growth: P-lim chemostat, doubling time 12 h
[7] = E. coli NCM3722 delta-hslV, growth: N-lim chemostat, doubling time 6 h
[8] = E. coli NCM3722 delta-lon, growth: N-lim chemostat, doubling time 6 h
[9] = E. coli NCM3722 delta-smpB, growth: N-lim chemostat, doubling time 6 h
[10] = wild type E. coli NCM3722, growth: N-lim chemostat, doubling time 6 h
[11] = wild type E. coli NCM3722, growth: N-lim chemostat, doubling time 12 h
[12] = E. coli NCM3722 delta-clpP, growth: N-lim chemostat, doubling time 6 h

Sequence | total protein half-life in vivo [1] [h] | total protein half-life in vivo [2] [h] | total protein half-life in vivo [3] [h] | total protein half-life in vivo [4] [h] | total protein half-life in vivo [5] [h] | total protein half-life in vivo [6] [h] | total protein half-life in vivo [7] [h] | total protein half-life in vivo [8] [h] | total protein half-life in vivo [9] [h] | total protein half-life in vivo [10] [h] | total protein half-life in vivo [11] [h] | total protein half-life in vivo [12] [h]
MKIVKAEVFVTCPGRNFVTLKITTEDGITGLGDATLNGRELSVASYLQDHLCPQLIGRDAHRIEDIWQFFYKGAYWRRGPVTMSAISAVDMALWDIKAKAANMPLYQLLGGASREGVMVYCHTTGHSIDEALDDYARHQELGFKAIRVQCGIPGMKTTYGMSKGKGLAYEPATKGQWPEEQLWSTEKYLDFMPKLFDAVRNKFGFNEHLLHDMHHRLTPIEAARFGKSIEDYRMFWMEDPTPAENQECFRLIRQHTVTPIAVGEVFNSIWDCKQLIEEQLIDYIRTTLTHAGGITGMRRIADFASLYQVRTGSHGPSDLSPVCMAAALHFDLWVPNFGVQEYMGYSEQMLEVFPHNWTFDNGYMHPGDKPGLGIEFDEKLAAKYPYEPAYLPVARLEDGTLWNW | 5.64 ± 0.3 | 3.61 ± 0.2 | 6.03 ± 0.18 | 10.5 ± 1.8 | 7.33 | > 16 |  |  |  |  |  | 
MSASALVCLAPGSEETEAVTTIDLLVRGGIKVTTASVASDGNLAITCSRGVKLLADAPLVEVADGEYDVIVLPGGIKGAECFRDSTLLVETVKQFHRSGRIVAAICAAPATVLVPHDIFPIGNMTGFPTLKDKIPAEQWLDKRVVWDARVKLLTSQGPGTAIDFGLKIIDLLVGREKAHEVASQLVMAAGIYNYYE | 5.064 ± 0.047 | 2.69 ± 0.31 | 5.15 ± 0.32 | 9.53 ± 0.47 | 5.81 ± 0.065 |  | 5.39 ± 1.1 | 4.534 ± 0.022 | 4.23 ± 0.24 | 4.21 ± 0.22 | 7.09 ± 0.18 | 
MPRANEIKKGMVLNYNGKLLLVKDIDIQSPTARGAATLYKMRFSDVRTGLKVEERFKGDDIVDTVTLTRRYVDFSYVDGNEYVFMDKEDYTPYTFTKDQIEEELLFMPEGGMPDMQVLTWDGQLLALELPQTVDLEIVETAPGIKGASASARNKPATLSTGLVIQVPEYLSPGEKIRIHIEERRYMGRAD [P0A6N8] | 5.17 ± 0.42 | 3.25 ± 0.46 | 5.42 ± 0.098 | 11.1 ± 0.96 | 5.26 ± 0.26 | 9.67 ± 0.66 | 4.21 ± 0.071 | 5.35 ± 0.38 | 4.45 ± 0.71 | 4.59 ± 0.062 | 6.944 ± 0.044 | 4.37 ± 0.34
MASISSLGVGSGLDLSSILDSLTAAQKATLTPISNQQSSFTAKLSAYGTLKSALTTFQTANTALSKADLFSATSTTSSTTAFSATTAGNAIAGKYTISVTHLAQAQTLTTRTTRDDTKTAIATSDSKLTIQQGGDKDPITIDISAANSSLSGIRDAINNAKAGVSASIINVGNGEYRLSVTSNDTGLDNAMTLSVSGDDALQSFMGYDASASSNGMEVSVAAQNAQLTVNNVAIENSSNTISDALENITLNLNDVTTGNQTLTITQDTSKAQTAIKDWVNAYNSLIDTFSSLTKYTAVDAGADSQSSSNGALLGDSTLRTIQTQLKSMLSNTVSSSSYKTLAQIGITTDPSDGKLELDADKLTAALKKDASGVGALIVGDGKKTGITTTIGSNLTSWLSTTGIIKAATDGVSKTLNKLTKDYNAASDRIDAQVARYKEQFTQLDVLMTSLNSTSSYLTQQFENNSNSK |  | 1.4 ± 0.12 | 0.627 ± 0.1 | 0.906 ± 0.44 | > 8 | > 16 | > 8 |  | > 8 |  | > 16 | > 8
MLNSILVILCLIAVSAFFSMSEISLAASRKIKLKLLADEGNINAQRVLNMQENPGMFFTVVQIGLNAVAILGGIVGDAAFSPAFHSLFSRYMSAELSEQLSFILSFSLVTGMFILFADLTPKRIGMIAPEAVALRIINPMRFCLYVCTPLVWFFNGLANIIFRIFKLPMVRKDDITSDDIYAVVEAGALAGVLRKQEHELIENVFELESRTVPSSMTPRENVIWFDLHEDEQSLKNKVAEHPHSKFLVCNEDIDHIIGYVDSKDLLNRVLANQSLALNSGVQIRNTLIVPDTLTLSEALESFKTAGEDFAVIMNEYALVVGIITLNDVMTTLMGDLVGQGLEEQIVARDENSWLIDGGTPIDDVMRVLDIDEFPQSGNYETIGGFMMFMLRKIPKRTDSVKFAGYKFEVVDIDNYRIDQLLVTRIDSKATALSPKLPDAKDKEESVA [P0AE45] | 5.65 ± 0.36 | 2.97 ± 0.18 | 5.16 ± 0.21 | 8.79 ± 0.3 | 5.01 ± 0.053 | 9 ± 0.094 | 4.5 ± 0.44 | 4.11 ± 0.21 | 4.53 ± 0.24 | 4.33 ± 0.52 | 7.63 ± 0.57 | 6.93 ± 1.4
MANLSGYNFAYLDEQTKRMIRRAILKAVAIPGYQVPFGGREMPMPYGWGTGGIQLTASVIGESDVLKVIDQGADDTTNAVSIRNFFKRVTGVNTTERTDDATVIQTRHRIPETPLTEDQIIIFQVPIPEPLRFIEPRETETRTMHALEEYGVMQVKLYEDIARFGHIATTYAYPVKVNGRYVMDPSPIPKFDNPKMDMMPALQLFGAGREKRIYAVPPFTRVESLDFDDHPFTVQQWDEPCAICGSTHSYLDEVVLDDAGNRMFVCSDTDYCRQQSEAKNQ |  |  |  |  | 0.723 ± 0.41 | 1.37 ± 0.74 |  |  |  |  |  | 
MQDKDFFSWRRTMLLRFQRMETAEEVYHEIELQAQQLEYDYYSLCVRHPVPFTRPKVAFYTNYPEAWVSYYQAKNFLAIDPVLNPENFSQGHLMWNDDLFSEAQPLWEAARAHGLRRGVTQYLMLPNRALGFLSFSRCSAREIPILSDELQLKMQLLVRESLMALMRLNDEIVMTPEMNFSKREKEILRWTAEGKTSAEIAMILSISENTVNFHQKNMQKKINAPNKTQVACYAAATGLI | 4.97 ± 0.28 |  |  |  |  |  |  |  |  |  |  | 
MKAFDLHRMAFDKVPFDFLGEVALRSLYTFVLVFLFLKMTGRRGVRQMSLFEVLIILTLGSAAGDVAFYDDVPMVPVLIVFITLALLYRLVMWLMAHSEKLEDLLEGKPVVIIEDGELAWSKLNNSNMTEFEFFMELRLRGVEQLGQVRLAILETNGQISVYFFEDDKVKPGLLILPSDCTQRYKVVPESADYACIRCSEIIHMKAGEKQLCPRCANPEWTKASRAKRVT | 6.22 ± 1.1 |  | > 8 | 11.8 |  | 12.1 ± 0.66 | 5.53 | 5.11 ± 0.43 | 5.8 ± 0.11 |  | > 16 | 6.17
